From FireProtDB (doi:10.1016/j.bpc.2007.12.006)
Several values for one entry are separate records, joined by “and”; a condition that tells them apart may be missing. Identical values can stand only once.

Details: CD, reversible: Yes, whole UniProt chain shown; for unfolding free energy: 25 °C; for heat capacity change of unfolding: Thermal

B1: Guanyl-specific ribonuclease T1 wild type, P00651 (protein)
chain: MMYSKLLTLTTLLLPTALALPSLVERACDYTCGSNCYSSSDVSTAQAAGYQLHEDGETVGSNSYPHKYNNYEGFDFSVSSPYYEWPILSSGDVYSGGSPGADRVVFNENNQLAGVITHTGASGNNFVECT
Aspergillus oryzae (strain ATCC 42149 / RIB 40), pH 2.2, GdnHCl, Glycine-HCl 0.1 M, KCl 0.1 M
  unfolding free energy: 2.72 kcal/mol
Aspergillus oryzae (strain ATCC 42149 / RIB 40), pH 2.2, Urea, Glycine-HCl 0.1 M, KCl 0.1 M
  unfolding free energy: 2.77 kcal/mol
Aspergillus oryzae (strain ATCC 42149 / RIB 40), pH 2.2, Glycine-HCl 0.1 M, KCl 0.1 M
  heat capacity change of unfolding: 2.5 kcal/mol/K and 2.65 kcal/mol/K

B2: Alpha-lactalbumin wild type, P00711 (protein)
chain: MMSFVSLLLVGILFHATQAEQLTKCEVFRELKDLKGYGGVSLPEWVCTTFHTSGYDTQAIVQNNDSTEYGLFQINNKIWCKDDQNPHSSNICNISCDKFLDDDLTDDIMCVKKILDKVGINYWLAHKALCSEKLDQWLCEKL
Bos taurus, pH 7, GdnHCl, Cacodylic acid 0.05 M, NaCl 0.1 M
  unfolding free energy: 2.41 kcal/mol
Bos taurus, pH 7, Urea, Cacodylic acid 0.05 M, NaCl 0.1 M
  unfolding free energy: 2.35 kcal/mol
Bos taurus, pH 7, Cacodylic acid 0.05 M, NaCl 0.1 M
  heat capacity change of unfolding: 2.15 kcal/mol/K and 2 kcal/mol/K
